Laboratory results as given in publication PMC8715119, “Second-generation non-hematopoietic erythropoietin-derived peptide for neuroprotection” (Redox Biology, 2021).

Tests used:
AKT = experiment: Time-series immunoblot of phosphorylated AKT; type: cell-based, rat; settings: PC12 cells; 1 nM; deficient level by 30 min, maintained at 90 min; n = 3
Procedure: (§1) PC12 or HT-22 cells were lysed in 100 mM Tris-Cl (pH 6.8) with 4% SDS. The lysates were loaded onto sodium dodecyl sulfate-polyacrylamide gel electrophoresis (SDS-PAGE) (8–10%), and the proteins were transferred onto the nitrocellulose membrane. The membrane was blocked with 0.1% TBST and 5% non-fat dry milk at 25°C for 30 min. Primary antibodies were diluted in 0.1% TBST and 3% bovine serum albumin (BSA). The primary antibodies included anti-pJAK2 (#3776, Cell Signaling Technology, USA), anti-JAK2 (#3230, Cell Signaling Technology, USA), anti-pSTAT5 (#9351, Cell Signaling Technology, USA), anti-STAT5 ([…], Cell Signaling Technology, USA), anti-pAKT (#9271, Cell Signaling Technology, USA), anti-AKT (#9272, Cell Signaling Technology, USA), anti-pERK (#9101, Cell Signaling Technology, USA) anti-ERK (#9102, Cell Signaling Technology, USA), anti-EPOR (#sc-365662, Santa Cruz Biotechnology, USA), anti-β-Actin (Santa Cruz Biotechnology, USA), anti-Bax (Santa Cruz Biotechnology, USA), anti-cleaved Casp3 (Cell Signaling Technology, USA), and anti-cleaved Parp1 (Cell Signaling Technology, USA).

male mice (C57BL/6 N) = experiment: Measurement of the hematopoietic effect after repeated subcutaneous injection; type: in vivo; settings: mouse, three times a week for four weeks, reEPO 150 IU/kg, ML1-h3 0.2 mg/kg
Procedure: The protocol of this experiment was approved by the Animal Care and Use Committee of the DGIST (DGIST-IACUC-21090804-0000). After two weeks for quarantine and acclimatization, male mice (C57BL/6 N, Koatech, Korea) were subcutaneously injected with vehicle (n = 6), reEPO (n = 6, 150 IU/kg), or ML1-h3 (n = 6, 0.2 mg/kg) three times a week for four weeks. After three days of final injection, they were anesthetized by injection of zoletil (50 mg/kg), and their blood was gathered from posterior vena cava into an EDTA-coated tube (#367863, BD Vacutainer, USA) using a syringe. The blood samples were analyzed by an automatic hematology analyzer (#ADIVIA 2120i, SIEMENS Healthineers, Germany) in DGMIF (Korea).

[1] = system: rat primary cortical neurons; experiment: Viability (Calcein-AM) under glutamate-induced excitotoxicity; type: cell-based; settings: glutamate (30 μM) for 24 h, reEPO 0.5 IU/ml, peptides 1 ng/ml, n = 3, Fig. 4e
Procedure: On the embryonic day 17, embryonic cerebral cortices were dissected from pregnant Sprague–Dawley rats. The cerebral cortices were treated with 0.25% trypsin-EDTA (#25200056, Gibco, USA) and then mechanically dissociated into single cells by pipetting. The dissociated cells were plated on 96-well plates coated by 50 μg/ml poly-L-lysine (P8920, Sigma-Aldrich, USA) at a density of 2.5 × 10^4 cells per well. They were incubated in neurobasal medium (#21103049, Gibco, USA) containing 2% B27 supplement (#17504044, Gibco, USA), 0.5 mM L-glutamine (#15430614, Gibco, USA), 25 μM glutamic acid (#G1251, Sigma-Aldrich, USA), and 1% penicillin/streptomycin (#15140122, Gibco, USA) at 37°C with 5% CO2. The medium was changed to a fresh medium without glutamate every 3–4 days, and on day 10, glutamic acid (30 μM) was added to induce excitotoxicity in the cells treated with or without reEPO and peptides.
To measure the viability of rat primary cortical neurons, we used Calcein-AM (#C3100MP, Invitrogen, USA). Cultured rat cortical neurons plated on 96-well plates (2.5 × 10^4 cells per well) were incubated with Calcein-AM (3 μM) for 30 min after various treatments. The intensity of the Calcein-AM signal (excitation, 485 nm; detection 535 nm) was measured by using a micro plate reader (VersaMax, Molecular Devices, USA).

[2] = system: differentiated neuronal PC12 cells; experiment: Cellular ROS level by H2DCFDA under H2O2; type: cell-based, rat; settings: H2O2 for 6 h; H2DCFDA staining; n = 5; Fig. 4b
Procedure: PC12 cells (#CRL-1721, ATCC, USA), a rat pheochromocytoma cell line derived from the adrenal medulla (#CRL-1721, ATCC, USA), were seeded on a dish, which was coated by poly L-lysine (0.01%; Sigma Chemical Co., USA), and grown in RPMI 1640 medium (#11875093, Gibco, USA), supplemented with 10% heat-inactivated horse serum (#26050088, Gibco, USA), 5% fetal bovine serum (FBS) (#SH30919.03, Hyclone, USA), and 1% penicillin/streptomycin at 37°C with 5% CO2. For neuronal differentiation, PC12 cells were plated at a density of 1.25x10^3 cell/cm^2 into 96-well plates coated with collagen 1 (#354236, BD Biosciences, USA) and grown in RPMI 1640 medium supplemented with 50 ng/ml nerve growth factor (NGF) (BD Biosciences, USA) and 0.5% FBS for 10 days. The NGF-supplemented media was replaced with fresh media every 3 days during neuronal differentiation.
The cellular ROS level was measured using 2′,7′-dichlorodihydrofluorescein diacetate (H2DCFDA) (#D399, Invitrogen, USA). The cells were incubated with 5 μM H2DCFDA in PBS for 30 min, washed with PBS, and then resuspended in the medium for 2 h. After treatment of H2O2 without or with reEPO, or peptide, we monitored the oxidative stress by measuring the fluorescence intensities of H2DCFDA by using excitation and emission wavelengths of 485 nm and 535 nm, respectively.

JAK2 = experiment: Time-series immunoblot of phosphorylated JAK2; type: cell-based, rat; settings: undifferentiated PC12 cells; 1 nM; up to 90 min; normalized by JAK2; n = 3
Procedure: as §1

Bax = experiment: Immunoblot of Bax after hypoxia and re-oxygenation; type: cell-based, mouse; settings: HT-22 cells; reEPO 0.5 IU/ml, ML1-h3 1 ng/ml; normalized by β-Actin; n = 6
Procedure: as §1
The HT-22 cells were seeded onto 96-well or 6-well plates. The next day, HT-22 cells were placed inside a sealed air-tight container consisting of an anaeropack (Mitsubishi Gas Company, Tokyo, Japan), which can induce a hypoxic atmosphere by absorbing oxygen and generating carbon dioxide. […]

reEPO: Recombinant human EPO (Epoetin-α, CJ HealthCare Corporation)
Level of phosphorylated AKT (pAKT) over time (AKT): gradually reduced phosphorylated AKT
Body weight (male mice (C57BL/6 N); n = 6): No significant difference
Cell number of platelet (male mice (C57BL/6 N); n = 6, versus vehicle): did not significantly affect
Content of haemoglobin (male mice (C57BL/6 N); n = 6, versus vehicle): dramatically increased
Hematocrit level (male mice (C57BL/6 N); n = 6, versus vehicle): dramatically increased
Number of erythrocytes (male mice (C57BL/6 N); n = 6, versus vehicle): dramatically increased
Number of granulocytes, including neutrophils and eosinophils (male mice (C57BL/6 N); n = 6, versus vehicle): considerably decreased
Number of lymphocytes (male mice (C57BL/6 N); n = 6, versus vehicle): did not significantly affect
Number of monocytes (male mice (C57BL/6 N); n = 6, versus vehicle): did not significantly affect
Number of reticulocytes (male mice (C57BL/6 N); n = 6, versus vehicle): dramatically increased
Total number of white blood cells (male mice (C57BL/6 N); n = 6, versus vehicle): did not significantly affect
Neuroprotective effect against glutamate-induced excitotoxicity (viability) [1]: showed a neuroprotective effect against glutamate-induced excitotoxicity
Level of reactive oxygen species (ROS) induced by H2O2 [2]: decreased the levels of reactive oxygen species (ROS)
Level of phosphorylated JAK2 (pJAK2) over time (JAK2): upregulated the level of phosphorylated JAK2 in ^1007/1008Tyr (pJAK2), an active form of JAK2 at 30–60 min; pJAK2 returned to the basal level at 90 min
Level of Bax under H/R (Bax): efficiently reduced the levels of Bax
